# In PMC7549369:
# Experiments:
# [1] = biological target: SipL-3×FLAG (Clostridioides difficile) (UniProt Q181G7); test: co-IP; SipL-3×FLAG immunoprecipitated with anti-FLAG magnetic beads from cleared lysates of sporulating C. difficile (22 h in the legend, 24 h in the methods), eluted with FLAG peptide; untagged SpoIVA detected by Western blot; SpoIVA/SipL ratio in the elution set to 1 for WT
# [2] = biological target: SipL (bacterial two-hybrid fusion from pKNT25-sipL) (Clostridioides difficile) (UniProt Q181G7); test: two-hybrid; bacterial adenylate cyclase two-hybrid (BACTH) in E. coli BTH101; pKNT25-sipL with pUT18C-spoIVA variants; plates with 0.5 mM IPTG, 40 h at 30°C; β-galactosidase activity in Miller units
substance,measurement,setting,value
"SpoIVA D102A, untagged, in sporulating C. difficile (from UniProt Q182W3 1-491) (natural protein)",fold more coimmunoprecipitated with SipL-3×FLAG relative to wild-type SpoIVA,[1],1.8 fold
"SpoIVA K35A (bacterial two-hybrid fusion, pUT18C) (from UniProt Q182W3 1-491) (natural protein)",fold reduction of binding to SipL relative to wild-type SpoIVA (β-galactosidase activity),[2],3 fold
"SpoIVA K35A, untagged, in sporulating C. difficile (from UniProt Q182W3 1-491) (natural protein)",fold less coimmunoprecipitated with SipL-3×FLAG relative to wild-type SpoIVA,[1],3 fold
"SpoIVA K35E (bacterial two-hybrid fusion, pUT18C) (from UniProt Q182W3 1-491) (natural protein)",fold reduction of binding to SipL relative to wild-type SpoIVA (β-galactosidase activity),[2],100 fold
"SpoIVA K35E, untagged, in sporulating C. difficile (from UniProt Q182W3 1-491) (natural protein)",fold less coimmunoprecipitated with SipL-3×FLAG relative to wild-type SpoIVA,[1],10 fold
"SpoIVA T75A (bacterial two-hybrid fusion, pUT18C) (from UniProt Q182W3 1-491) (natural protein)",fold increase of binding to SipL relative to WT SpoIVA (β-galactosidase activity),[2],2 fold
"SpoIVA T75A, untagged, in sporulating C. difficile (from UniProt Q182W3 1-491) (natural protein)",fold more coimmunoprecipitated with SipL-3×FLAG relative to wild-type SpoIVA,[1],1.5 fold
